Assay results as given in patent publication US20230212305A1 (published 2023).

T1: human ABCG2 (human, UniProt Q9UNQ0 1-655)
T1 sequence: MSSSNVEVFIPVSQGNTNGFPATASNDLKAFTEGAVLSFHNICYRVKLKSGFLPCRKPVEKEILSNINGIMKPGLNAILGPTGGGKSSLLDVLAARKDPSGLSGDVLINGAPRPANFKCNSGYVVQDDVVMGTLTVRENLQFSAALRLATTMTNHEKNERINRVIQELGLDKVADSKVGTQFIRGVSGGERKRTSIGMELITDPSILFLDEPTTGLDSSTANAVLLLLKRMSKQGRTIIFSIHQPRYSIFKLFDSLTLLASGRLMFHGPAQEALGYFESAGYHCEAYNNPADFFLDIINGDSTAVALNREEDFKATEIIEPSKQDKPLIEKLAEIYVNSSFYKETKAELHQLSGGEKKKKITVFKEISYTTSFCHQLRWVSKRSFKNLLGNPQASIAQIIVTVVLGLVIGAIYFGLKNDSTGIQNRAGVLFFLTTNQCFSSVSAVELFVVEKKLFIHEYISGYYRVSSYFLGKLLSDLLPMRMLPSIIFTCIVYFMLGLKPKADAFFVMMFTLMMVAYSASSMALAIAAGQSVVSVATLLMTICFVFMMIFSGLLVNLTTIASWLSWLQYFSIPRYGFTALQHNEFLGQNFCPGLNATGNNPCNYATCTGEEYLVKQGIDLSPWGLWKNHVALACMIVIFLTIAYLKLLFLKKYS

T2: cynomolgus ABCG2 (Macaca fascicularis) (Macaca fascicularis (cynomolgus), UniProt Q5MB13 1-654 (rhesus entry))
T2 construct: also called cABCG2
T2 sequence: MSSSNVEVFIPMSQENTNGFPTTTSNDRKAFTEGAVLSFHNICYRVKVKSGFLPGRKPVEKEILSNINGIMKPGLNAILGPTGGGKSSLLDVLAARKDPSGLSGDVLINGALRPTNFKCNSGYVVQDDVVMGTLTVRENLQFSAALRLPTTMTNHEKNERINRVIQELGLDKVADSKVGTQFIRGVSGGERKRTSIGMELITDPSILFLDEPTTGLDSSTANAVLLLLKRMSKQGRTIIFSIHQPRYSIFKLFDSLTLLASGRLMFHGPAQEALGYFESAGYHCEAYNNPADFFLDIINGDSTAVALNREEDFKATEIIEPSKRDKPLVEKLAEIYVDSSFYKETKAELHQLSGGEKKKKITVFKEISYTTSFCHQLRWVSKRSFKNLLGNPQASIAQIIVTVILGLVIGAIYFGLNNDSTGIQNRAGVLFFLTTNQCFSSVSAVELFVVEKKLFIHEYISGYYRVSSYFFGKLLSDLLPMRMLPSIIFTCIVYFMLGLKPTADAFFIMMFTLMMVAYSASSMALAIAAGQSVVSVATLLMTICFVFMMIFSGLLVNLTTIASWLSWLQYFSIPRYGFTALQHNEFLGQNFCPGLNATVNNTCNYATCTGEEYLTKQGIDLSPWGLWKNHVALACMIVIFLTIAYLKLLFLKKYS


How the values were obtained:
[1] = target: T1, human ABCG2; assay: cell-based or functional assay
[2] = target: T1, human ABCG2; assay: flow cytometry, 293T cells overexpressing human ABCG2
Protocol: (§1) Cell Binding Assays. Antibody binding to cells was evaluated by flow cytometry. […] After incubating cells on ice for 30 min, cells were washed twice with flow cytometry buffer. Bound antibody was detected with PE-labeled F(ab′)₂ fragment goat anti-human IgG (Jackson ImmunoResearch) and evaluated on an Attune NxT flow cytometer.

[3] = target: T2, cynomolgus ABCG2 (Macaca fascicularis); assay: flow cytometry, 293T cells overexpressing cynomolgus ABCG2
Protocol: as §1

[4] = target: T1, human ABCG2; assay: flow cytometry titration on 293T_ABCG2_OX cells; column Affinity for human ABCG2 (nM)
Protocol: as §1

[5] = target: T2, cynomolgus ABCG2 (Macaca fascicularis); assay: flow cytometry on cells expressing cynomolgus ABCG2; paragraph 395: non-significant binding = -
Protocol: as §1

[6] = target: T1, human ABCG2; assay: flow cytometry (FACS) on 293T_ABCG2_OX cells

Row | Binder | IC50 of topotecan cytotoxicity in the presence of the antibody [1] [nM] | binding result [2] | binding result [3] | Kd [4] [nM] | binding result [5] | binding result [6]
1 | G2.640 (antibody, human IgG1, V domains shown, Raised in rats) VH: EVKLEESGPGLVQPSQTLSLTCTVSGFSLTSDGVSWVRQPPGKGLEWIAAISSGGSTYYNSALKSRLSISRDTSKSQVFLKMNSLQTEDTAIYFCTRDTYYGYNQIPFVYWGQGTLVTVSS VL: DIVIIQSPPSLSASLGDKVTISCQASQNIHRYIAWYQQKPGKAPRLLIRYTSTLESGTPSRFSGSGSGRDYSFSISNVESEDIASYYCLQYVNLWTFGGGTKLELK | 6.9 | no binding | no binding | – | – | –
2 | G2.642 rat (antibody, human IgG1, V domains shown) VH: QIQLVQSGAELVKPGASVKLSCKTSGFTFSSNYISWLRQKPRQSLEWIAWIYSGTGGTYYNQKFTGKAQLTIDTSSNTAYMQLSSLTSEDSAIYYCARHVGLRYWYFDVWGAGTSVTVSS VL: DIVLTQSPASLTVSLGQRATISCRASESVDSNGNSFMHWYQQKPGQSPKVLIYRASNLESGVPARFSGSGSRTDFTLTINPVEADDVATYYCQQSNEDPWTFGGGTKLEIKR | 9.08 | – | – | 48 | no binding | –
3 | G2.256 mouse (antibody, human IgG1, V domains shown, Variable regions cloned onto human IgG1 constant heavy chain and human kappa constant light chain) VH: EVQLQQSGPELVKPGASLKISCKTFGYSFTGYYMHWVKQSPEKSLEWIGKIVPSTGGTTYNQKFKAKATLTVDKSSFTAYMQLKSLTSEDSAVYYCAREKVYGYDVYYFDYWGQGTTLTVSS VL: DIVMSQSPATLSVTPGDRVSLSCRASQSISDYLHWYQQKSHESPRLLIKYASQSISGIPSRFSGSGSGSDFTLSINSVEPEDVGVYYCQNGHSFPWTFGGGTKLEIK | – | – | – | – | no binding | binds
4 | G2.748 rat (antibody, V domains shown) VH: QVSLKESGPGMLQPSKTLSLTCSFSGFSLSTSGMVVNWIRQPSGKSLEWLAAIDWDGDKYYNPSLKHRLTVSKDTSNTQVVLKITSVDTADTATYYCARSIAPYRGWFGYWGQGTLVTVSS VL: EIVLIQSPSSLPASLGERVTIICRASQDIGNNLNWYQQKPDGTIKPLIYFTSNFQSGVPSSFSGSRSGTDFSLTISSLEAEDFAMYYCQQDASLPWTFGGGTKLEIK | – | binds | binds | – | – | –
5 | G2.643 mouse (antibody, human IgG1, V domains shown, Recombinant antibody) VH: VNLVESGPELVKPGTSVKISCKASGYRFTSYYVHWVKQRPGQGLEWIGWIFPGSDNTKYNEKFKGKATLTADTSSSTAYMQLSSLTSEDSAVYFCASIYYGYDGTLYFDYWGQGTSVTVSS VL: DIVMTQSHTFMSTSVGDRVSVTCKASQNVGNNVAWYQQKPGQSPNALIYSASYRYSGVPDRFTGSGSGTDFTLTISNVQSEDLAEYFCQQYDRYPLTFGGGTKLEIK | – | binds | binds | – | – | –
6 | G2.760 rat (antibody, human IgG1, V domains shown) VH: EVQLVESGGGLVQPGRSMKLSCAASGFTFSKSDMAWVRQAPTKGLKWVASIRYDGGNTYYRDSVRGRFTISRDNAKSTLYLQMDSLRSEDTATYYCSTAKAAISTPSYYVLDAWGQGASVTVSS VL: DIGMTQSPTSMSKSVGDRVTMNCKASQNVGSNVDWFQQKTGQSPKLLIYKSSNRYTGVPARFTGSGSGTDFTFTISNMQAEDLAVYYCMQSNSYPPTFGGGTKLELK | – | binds | binds | – | – | –
